Experimental data: patent CN116178540A (SANYOU BIO INC, dated 2023)
Numbering of substitutions follows the chain as printed.

T1: hANG2-Fc (human, UniProt O15123)
T1 chain: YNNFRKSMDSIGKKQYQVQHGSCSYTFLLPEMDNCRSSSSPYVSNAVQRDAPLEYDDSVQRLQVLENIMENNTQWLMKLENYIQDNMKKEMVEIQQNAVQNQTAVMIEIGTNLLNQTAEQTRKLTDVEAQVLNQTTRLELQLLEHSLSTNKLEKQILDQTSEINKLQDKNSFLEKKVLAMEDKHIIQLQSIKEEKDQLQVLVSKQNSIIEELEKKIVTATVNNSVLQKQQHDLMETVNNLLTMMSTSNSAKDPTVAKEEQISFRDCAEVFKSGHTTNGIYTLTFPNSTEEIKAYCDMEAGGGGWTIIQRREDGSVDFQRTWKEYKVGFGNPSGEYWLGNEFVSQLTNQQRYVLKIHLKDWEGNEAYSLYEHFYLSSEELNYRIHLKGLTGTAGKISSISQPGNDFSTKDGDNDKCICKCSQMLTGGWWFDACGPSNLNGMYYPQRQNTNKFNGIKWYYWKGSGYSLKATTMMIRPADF

T2: hANG1-Fc (human, UniProt Q15389)
T2 chain: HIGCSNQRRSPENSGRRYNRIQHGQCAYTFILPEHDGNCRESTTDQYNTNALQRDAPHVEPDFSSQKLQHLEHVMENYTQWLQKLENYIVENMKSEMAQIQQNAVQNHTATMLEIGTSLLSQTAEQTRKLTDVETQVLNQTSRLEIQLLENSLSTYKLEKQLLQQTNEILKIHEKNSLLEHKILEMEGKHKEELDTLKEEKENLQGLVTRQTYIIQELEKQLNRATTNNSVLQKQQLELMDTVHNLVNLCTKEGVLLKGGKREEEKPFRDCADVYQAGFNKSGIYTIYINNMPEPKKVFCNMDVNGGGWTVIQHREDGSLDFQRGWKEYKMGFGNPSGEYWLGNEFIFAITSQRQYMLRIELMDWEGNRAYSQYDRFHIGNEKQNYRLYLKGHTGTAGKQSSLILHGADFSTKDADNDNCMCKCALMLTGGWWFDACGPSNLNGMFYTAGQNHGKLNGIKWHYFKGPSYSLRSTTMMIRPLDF

T3: hANG2-His (human, UniProt O15123 19-496, limits assumed)
T3 construct: also called 人源ANG2; ANGPT2; not shown: C-terminal His tag
T3 sequence (looked up): T1 chain

T4: hANG2-His (human, UniProt O15123)
T4 chain: T1 chain

B1: 17 (antibody, V domains shown)
VH: EVQLVESGGGVVKPGGSLRLSCAASGFTFNKYTINWVRQTPGKGLELVADISSGGDYVNYADSVKGRFTISRDNAKDSVYLLMNGLRAEDTAVYYCARDALTYSNNWLDSWGQGTLVTVSS
VL: DIQLTQSPSFLSASVGDRVTITCRASQGISSYLAWYQQKPGKAPKLLIYAASTLQSGVPSRFSGGGYGTDFTLTISSLQPEDFATYYCQQFESYPLTFGGGTRLEIK
B2: nesvacumab (antibody, V domains shown)
VH: EVQLVESGGGLVQPGGSLRLSCAASGFTFSSYDIHWVRQATGKGLEWVSAIGPAGDTYYPGSVKGRFTISRENAKNSLYLQMNSLRAGDTAVYYCARGLITFGGLIAPFDYWGQGTLVTVSS
VL: EIVLTQSPGTLSLSPGERATLSCRASQSVSSTYLAWYQQKPGQAPRLLIYGASSRATGIPDRFSGSGSGTDFTLTISRLEPEDFAVYYCQHYDNSQTFGQGTKVEIK
B3: 抗体78A74-25 (antibody, IgG1, V domains shown)
VH: QVQLVESGGGLVKPGGSLRLSCAASGFTFSSYSMNWVRQAPGKGLEWVAVISYDGSNKYYADSVKGRFTISRDNSKNTLYLQMNSLRAEDTAVYYCAKATLDGYTAGYYYGMDVWGQGTTVTVSS
VL: EIVLTQSPATLSLSPGERATLSCRASQSVSSYLAWYQQKPGQAPRLLIYDASNRATGIPARFSGSGSGTDFTLTISSLEPEDFAVYYCQQRSNWPPELYFGQGTKVEIK
B4: 抗体78A74-7 (antibody, IgG1, V domains shown)
VH: B3 VH
VL: B3 VL with Q90L, R91M, L98W, Y99T
B5: 抗体78A74-35 (antibody, IgG1, V domains shown)
VH: B3 VH
VL: B3 VL with E97A, L98M, Y99T
B6: 抗体78A74-21 (antibody, IgG1, V domains shown)
VH: B3 VH with A99E
VL: B3 VL with S30G, W94G, L98W, Y99T
B7: 抗体78A74-36 (antibody, IgG1, V domains shown)
VH: B3 VH
VL: B3 VL with S92T, N93M, L98W, Y99T

Target: T1, hANG2-Fc
Test: competition ELISA (TIE2 blocking)

| IC50 [µg/mL] | Binder |
| --- | --- |
| 0.547 | B1 |
| 1.58 | B2 |

Target: T2, hANG1-Fc
Test: ELISA

| binding result | Binder |
| --- | --- |
| no binding | B1 |
| no binding | B2 |

Target: T3, hANG2-His
Test: BLI (Gator), antibody captured on sensor, hANG2-His 100/50/25 nM

| Kd [nM] | koff [s⁻¹] | kon [M⁻¹ s⁻¹] | Binder |
| --- | --- | --- | --- |
| 0.828 | 0.000161 | 194000 | B3 |
| 0.544 | 0.000103 | 189000 | B4 |
| 1.52 | 0.000284 | 187000 | B5 |
| 0.687 | 0.000132 | 192000 | B6 |
| 1.32 | 0.000263 | 200000 | B7 |

Target: T1, hANG2-Fc
Test: FACS competition (TIE2-HEK293)

| IC50 [µg/mL] | Binder |
| --- | --- |
| 0.323 | B1 |
| 0.362 | B2 |

Target: T4, hANG2-His
Test: ELISA

| EC50 [µg/mL] | Binder |
| --- | --- |
| 0.12 | B1 |
| 0.442 | B2 |

Target: T3, hANG2-His
Test: BLI (Gator), antibody captured on sensor, hANG2-His 100/50/25 nM
Remark: another data set of the same source

| fold affinity against nesvacumab [fold] | Binder |
| --- | --- |
| ~2 | B3 |
| ~2 | B4 |
| ~2 | B6 |

Target: T4, hANG2-His
Test: BLI

| Kd [nM] | Binder |
| --- | --- |
| 1.17 | B2 |
